{"source": "paper PMC7913777", "about": "“Allosteric effects of SSB C-terminal tail on assembly of E. coli RecOR proteins” (Nucleic Acids Research, 2021)", "molecules": {"B1": {"name": "P15 peptide (the 15 C-terminal amino acids of E. coli SSB) (peptide)", "peptide": "PSNEPPMDFDDDIPF", "notes": "the 15 C-terminal amino acids of E. coli SSB; also called SSB-Ct peptide; SSB C-terminal acidic tip peptide; source: bought: WatsonBio"}, "B2": {"name": "RecO–P15 complex (complex, E. coli)", "chain": "MEGWQRAFVLHSRPWSETSLMLDVFTEESGRVRLVAKGARSKRSTLKGALQPFTPLLLRFGGRGEVKTLRSAEAVSLALPLSGITLYSGLYINELLSRVLEYETRFSELFFDYLHCIQSLAGVTGTPEPALRRFELALLGHLGYGVNFTHCAGSGEPVDDTMTYRYREEKGFIASVVIDNKTFTGRQLKALNAREFPDADTLRAAKRFTRMALKPYLGGKPLKSRELFRQFMPKRTVKTHYE", "peptide": "PSNEPPMDFDDDIPF", "notes": "RecO, E. coli; as m1; the 15 C-terminal amino acids of E. coli SSB; as m3; 29.1 kDa; also called RecO in the presence of a 6-fold molar excess of P15; source: RecO from E. coli BL21(DE3)pLysS, purified; P15 bought: WatsonBio; mixed with a six-fold molar excess of P15 over RecO; copies: 1 + 1"}}, "key": {"[1]": {"biological_target": "T1, E. coli RecR tetramer (E. coli, UniProt P0A7H6 1-201)", "T1 construct": "RecR, E. coli; tetramer 87.8 kDa; Same preparation as m2; the tetrameric state, which is the one found in complexes with RecO; also called RecR4; R4; source: E. coli BL21 Rosetta 2(DE3)pLysS, purified (Ni-NTA)", "T1 sequence (looked up)": "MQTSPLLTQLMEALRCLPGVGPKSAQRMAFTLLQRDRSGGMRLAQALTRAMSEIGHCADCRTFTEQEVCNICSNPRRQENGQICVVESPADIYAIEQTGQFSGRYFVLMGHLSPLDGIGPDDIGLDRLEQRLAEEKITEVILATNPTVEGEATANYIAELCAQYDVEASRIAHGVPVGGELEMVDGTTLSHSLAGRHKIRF", "experiment": "AUC; sedimentation equilibrium, RecO 1.5 μM + RecR 6 μM monomer (1:4), no P15, buffer BTP (pH 8), 25°C, 18 000, 23 000, 28 000 rpm; two-species model, free RecR dimer fixed"}, "[2]": {"biological_target": "T1, E. coli RecR tetramer", "experiment": "AUC; sedimentation equilibrium, RecO 1.5 μM + RecR 1.5 μM monomer (1:1), no P15, buffer BTP (pH 8), 25°C, 18 000, 23 000, 28 000 rpm; two-species model, free RecO fixed"}, "[3]": {"biological_target": "T1, E. coli RecR tetramer", "experiment": "AUC; sedimentation velocity, RecO (1.5 μM) titrated with RecR (1.5-9 μM monomer; 1:1 to 1:6), no P15, buffer BTP (pH 8.0), 25°C; K3 and K4 from SedAnal simulations (Scheme 1) that best describe the c(s) profiles"}, "[4]": {"biological_target": "Escherichia coli RecR protein (E. coli) (UniProt P0A7H6)", "experiment": "AUC; sedimentation equilibrium of RecR alone, 4, 8 and 12 μM (monomer), buffer BTP pH 8.0, 50 mM NaCl, 25°C; dimers to tetramer, Lobs = [R4]/[R2]^2; at 8 μM also a two-species model with the second mass floated"}, "[5]": {"biological_target": "Escherichia coli RecR protein (E. coli) (UniProt P0A7H6)", "experiment": "AUC; sedimentation equilibrium of RecR alone, buffer BTP pH 8.0 with 200 mM NaCl, 25°C; dimers to tetramer"}, "[6]": {"biological_target": "Escherichia coli RecR protein (E. coli) (UniProt P0A7H6)", "experiment": "AUC; sedimentation equilibrium of RecR alone, 4, 8 and 12 μM (monomer), buffer BTP pH 9.0, 50 mM NaCl, 25°C; dimers to tetramer, Lobs = [R4]/[R2]^2"}, "[7]": {"biological_target": "Escherichia coli RecR protein (E. coli) (UniProt P0A7H6)", "experiment": "AUC; sedimentation equilibrium of RecR alone, buffer BTP, 37°C; dimers to tetramer"}, "[8]": {"biological_target": "Escherichia coli RecR protein (E. coli) (UniProt P0A7H6)", "experiment": "AUC; sedimentation equilibrium of RecR alone, 4, 8 and 12 μM (monomer), buffer BTP pH 7.5, 50 mM NaCl, 25°C; dimers to tetramer, Lobs = [R4]/[R2]^2"}, "[9]": {"biological_target": "Escherichia coli RecR protein (E. coli) (UniProt P0A7H6)", "experiment": "AUC; sedimentation equilibrium of RecR alone, 4, 8 and 12 μM (monomer), buffer BTP pH 8.5, 50 mM NaCl, 25°C; dimers to tetramer, Lobs = [R4]/[R2]^2"}, "[10]": {"biological_target": "Escherichia coli RecR protein (E. coli) (UniProt P0A7H6)", "experiment": "AUC; sedimentation velocity of RecR alone, eight concentrations 2-20 μM (monomer), buffer BTP (pH 8.0), 25°C, 233 nm"}, "[11]": {"biological_target": "Escherichia coli RecR protein (E. coli) (UniProt P0A7H6)", "experiment": "AUC; sedimentation equilibrium of RecR alone, 4, 8 and 12 μM (monomer), buffer BTP pH 7.0, 50 mM NaCl, 25°C; dimers to tetramer, Lobs = [R4]/[R2]^2"}, "[12]": {"biological_target": "Escherichia coli RecR protein (E. coli) (UniProt P0A7H6)", "experiment": "AUC; sedimentation equilibrium of RecR alone, buffer BTP pH 8.0, 50 mM NaCl + 10 mM MgCl2, 25°C; dimers to tetramer"}, "[13]": {"biological_target": "Escherichia coli RecR protein (E. coli) (UniProt P0A7H6)", "experiment": "AUC; sedimentation equilibrium of RecR alone, 4, 8 and 12 μM (monomer), buffer BTP pH 6.4, 50 mM NaCl, 25°C; dimers to tetramer, Lobs = [R4]/[R2]^2"}, "[14]": {"biological_target": "T2, Escherichia coli RecO protein (E. coli, UniProt P0A7H3 1-242)", "T2 chain": "B2 chain", "experiment": "ITC; pH 8, 25°C"}, "[15]": {"biological_target": "T3, RecOR complex (pre-mixed RecO and RecR, 1:4 molar ratio) (E. coli, UniProt P0A7H3 1-242; P0A7H6 1-201)", "T3 construct": "RecO, E. coli; as m1; RecR, E. coli; as m2; also called pre-mixed solution of RecO (2 μM) and RecR (8 μM monomer); source: purified RecO and purified RecR (both from E. coli), pre-mixed; copies: + 4", "T3 sequence (looked up) 1": "B2 chain", "T3 sequence (looked up) 2": "T1 sequence (looked up)", "experiment": "ITC; P15 (50 μM) titrated into a pre-mixed solution of RecO (2 μM) and RecR (8 μM monomer), buffer BTP, pH 8.0, 25°C", "conditions": "both partners purified"}, "[16]": {"biological_target": "T1, E. coli RecR tetramer", "experiment": "AUC; sedimentation equilibrium, RecR 2 μM monomer, RecO 6 μM (3:1), P15 36 μM, buffer BTP (pH 8.0), 25°C, 19 000, 24 000, 29 000 rpm; two-species model, RecO-P15 fixed at 29.1 kDa", "conditions": "both partners purified"}, "[17]": {"biological_target": "T1, E. coli RecR tetramer", "experiment": "AUC; sedimentation equilibrium, RecO 1.5 μM + RecR 6 μM (1:4) with P15 (9 μM), buffer BTP (pH 8), 25°C, 19 000, 24 000, 29 000 rpm; one-species model", "conditions": "both partners purified"}, "[18]": {"biological_target": "T1, E. coli RecR tetramer", "experiment": "AUC; sedimentation equilibrium, RecO 1.5 μM + RecR 1.5 μM (1:1) with P15 (9 μM), buffer BTP (pH 8), 25°C, 19 000, 24 000, 29 000 rpm; two-species model", "conditions": "both partners purified"}}, "note": "Values joined by “and” are separate entries in the source; they are usually repeats but may differ in a detail not shown here. Equal entries are not always repeated."}
{"molecule": "Escherichia coli RecO protein (from UniProt P0A7H3 1-242) (natural protein)", "values": [{"measurement": "stoichiometry N (RecO per RecR tetramer)", "setting": "[1]", "result": 2}, {"measurement": "stoichiometry N (RecO per RecR tetramer)", "setting": "[2]", "result": 2}, {"measurement": "K3 (association constant, first RecO to RecR4)", "setting": "[3]", "result": 500000, "unit": "M⁻¹"}, {"measurement": "K4 (association constant, second RecO to RecR4O)", "setting": "[3]", "result": "4e+08", "unit": "M⁻¹"}]}
{"molecule": "Escherichia coli RecR protein (from UniProt P0A7H6 1-201) (natural protein)", "values": [{"measurement": "Ka", "setting": "[4]", "result": 216000, "unit": "M⁻¹"}, {"measurement": "stoichiometry N", "setting": "[4]", "result": 4}, {"measurement": "Ka", "setting": "[5]", "result": 34900, "unit": "M⁻¹"}, {"measurement": "Ka", "setting": "[6]", "result": "< 500", "unit": "M⁻¹"}, {"measurement": "Ka", "setting": "[7]", "result": 149000, "unit": "M⁻¹"}, {"measurement": "Ka", "setting": "[8]", "result": 568000, "unit": "M⁻¹"}, {"measurement": "Ka", "setting": "[9]", "result": 4320, "unit": "M⁻¹"}, {"measurement": "stoichiometry N", "setting": "[10]", "result": "2 and 4"}, {"measurement": "Ka", "setting": "[11]", "result": "1.65e+06", "unit": "M⁻¹"}, {"measurement": "Ka", "setting": "[12]", "result": 72000, "unit": "M⁻¹"}, {"measurement": "Ka", "setting": "[13]", "result": 267000, "unit": "M⁻¹"}]}
{"molecule": "B1", "values": [{"measurement": "Ka", "setting": "[14]", "result": "1.2e+07", "unit": "M⁻¹"}, {"measurement": "dH", "setting": "[15]", "result": "< 1", "unit": "kcal/mol"}]}
{"molecule": "B2", "values": [{"measurement": "stoichiometry N", "setting": "[16]", "result": "2 RecO-P15 per RecR tetramer"}, {"measurement": "stoichiometry N", "setting": "[17]", "result": 1, "unit": "RecO per RecR tetramer"}, {"measurement": "stoichiometry N", "setting": "[18]", "result": 2, "unit": "RecO per RecR tetramer"}]}
